Measurements taken from the nanobody polyreactivity screen of Harvey et al. (2022).

Assay: yeast display, Sf9 membrane polyspecificity reagent, FACS + sequencing; frameworks hold sequencing errors
Outline: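 Genes from sorted yeast were amplified by colony PCR, read by MiSeq 2 × 250 sequencing and filtered on CDR length. These cells carried a synthetic nanobody library in Saccharomyces cerevisiae BJ5465 and were sorted by FACS into low and high (top ~1%) gates on anti-HA and streptavidin fluorescence. Polyreactivity is labelled according to the gate of origin.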

Row | Sequence | polyreactivity (PSR sort gate)
1 | QVQLVESGGGIVQAGGSLRLSCAASGYSFFINAMGWSRQAPGKERELVAAIDLRGGSTYYADSVKGRFTISRDNAKNTVYLQMNSLKPEDTAVYYCNARARRYGGRYYYWGQGTQVTVSS | high polyreactivity
2 | QVQLVESGGGIVQAGGSLRLSCAASGYTIDSYGMGWYRQAPGKERELVAAIDWSGGSTYYADSVKGRFTISRDNAKNTVYLQMNSLKPEDTAVYYCAARRGLRLFAYRHGYWGQGTQVTVSS | low polyreactivity
3 | QVQLVESGGGIVQAGGSLRLSCAASYYDMGWYRQAHGKERELVASISSGGSTNYADSVKGRFTISRDNAKNTVYLQMNSLKPEVTAVYYCAAVVADGVWVKIADEYWGQGTQVTVSS | low polyreactivity
4 | QVQLVESGGGIVQAGGSLRLSCASSGLIFKFYAMGWYRQAPGKERELVASIRRSGDNTYYADSVKRRFTISRDNAKNTVYLQMKSLKPEDTAVYYCAAELLYDYVEYYYWGQGTQVTVAS | high polyreactivity
5 | QVQLVESGGGIVQAGGSLRLSCDGSGSTFTYYAMGWYRQEPGKEWEFVAAISRRGGSTYYADSVKGRFTISRDNAKNTVYFQLNSLKPEDTAVSDCNVVIYSYGINGRYDYWGQGTQVTVSS | high polyreactivity
6 | QVQLVESGGGIVQAGGSLRLSCTASGFTFTYYAMGSYRQAPGKERELVAAISWSGGSTYYADSVKGRFTISRDNAKNTVYLQMNSLKPEDTAVYYCNKVGRAIGPYDYWGQGTQVTVSS | high polyreactivity
7 | QVQLVESGGGIVQAGGSLRLSSAASGFTFYYYAIGWYRQAPGKERELVAAISSGGSTYYADSVKGRFTISRDNAKNTVYLQMNSLKPEDTAVYYCAADSLYYRYDYWGQGTQVTVSS | low polyreactivity
8 | QVQLVESGGGIVQAGGSLRLSSAASGGIFPYYVMGRYRQAPGKERELVAAINSGGTTYYADSVKGRFTISRDNAKNTVYLQMNSLKPEDTAVYYCAAEAYKHGVWDYDYWGQGTQVTVSS | low polyreactivity
9 | QVQLVESGGGIVQAGGSLRLSSAASGRIFDGYTKGWYRHEPGKERQLVAAITYRSGRTYYADSVKGRFTISRDNAKNTVYLQMHSLKPDDTAVYYCAAPWYRGGNTESYYWGQGTQVTVSS | high polyreactivity
10 | QVQLVESGGGIVQAGGSLRLSSAASGSTFVYNAMGSYRQAPGKERELVASITRSGSSTYYADSVKGRFTISRDNAKNTVYLQMNSLKPEDSAVYYCAVRYYVLSYYRYYYWGQGTQVTVSS | low polyreactivity
11 | QVQLVESGGGIVQAGGSLRLTCAASGRIFPTYAMGWYRQAPGKEREMVATINGDGGSTYYAYSVKGRFTISRDNPKNTVYLHMNSLKPEDTSVDYCAKSYPFAAEYDYWGQGSQVTVSS | low polyreactivity
12 | QVQLVESGGGIVQAGGSLRVSCAASGFTFHKYAMGWYRQAPGTERELVAVISQSASSTYYADSVKGRFTISRDNAKNTVYFQMNGLKPEDTAVYYCNAKYYRYNRRNYWGQVTQVTVSS | high polyreactivity
13 | QVQLVESGGGIVQAGRSLRLSCAASGRIFYTNVMGWYRQAPGKERELDAAISSAGTTYYADSVKGRFTISRDNAKNTVYLQMNSLKPEDTAVYYCAADQVAYYGFDYWGQVTQVTVSS | low polyreactivity
14 | QVQLVESGGGIVQAGVILRLSCAATGITFWNNAMRWYRQARGKERELVATISSNGGRTYYADSVKGRFTISRDNAKNTVYLQMNSLKPEDTAVYYCKARQVLYGLYLRAYPYEYWGQGTQVTVSS | low polyreactivity
15 | QVQLVESGGGIVQARGSLRLSCAASGSILSSYAMGWYTQAPGKERELVAAISKSGTRTYYADSVKGRFTISRDNAKNTVYLQMNSLKPEDTAVYYCAARYYSRTTAMDYWGQGTQVTVSS | high polyreactivity
16 | QVQLVESGGGIVQEGGSLSLSCAASGRIFFDYAMGWYRQAPGKERELVADIDWSGGITYYADSVKGRYTISRDNAKNTVYLQMNSLNPEDTAVYYCAVEFDELYPTTAYGEFEYWGQVTQVTVSS | high polyreactivity
17 | QVQLVESGGGKVQAGGSLRLSCAASGFTFSNAMGWYRQAPGKERELVAAITRIGGSTFYADSVKGRFTISRDNAKNTVYLQLNSLKPEDTAVYSCAADYGLPLYEGYYWGQGTQVTVSS | low polyreactivity
18 | QVQLVESGGGKVQAGGSLRLSCAASGRTFRWYAMGWYRQAPGKERELVAAITSSSSTNYADSVKGRFTISRDNAKNTVYLQMNSLKPEDTAVYYCAKGWNWYDLGESGYWGQGTQVTVSS | low polyreactivity
19 | QVQLVESGGGKVQAGGSLRLSCAASGRTFWVYAMGWYRPAPGKERELVASISWSVGSTYYADSVKGRFTISRDNAKNTVYLQMNSLKPEDTAVYYCAADPSPYGDEYDYWGQGTQVTVSS | low polyreactivity
20 | QVQLVESGGGKVQAGRSHRLTCAASGSIFYTYPMGWYRQAPGKERELVAAIRSSDGSTYYADSVKGRFTISRDYAKNTVYIQMNSLKSEYTGVYYCAAENIPGEGYYHFEYDYWGQGTQVTVSS | low polyreactivity
21 | QVQLVESGGGLAQAGGSLRLRCAASGRTFPSYAMGWYSQAPGKERELVAAISRSGARTYYADSVKGRFTISRDNAKTTVYLQMNSLKPDDTAVYYCAAVGSTRYEYWGQGSQVTVSS | high polyreactivity
22 | QVQLVESGGGLAQAGGSLRLSCAASGRIIYFNAMGWYRQAPGKEREFVAAISSSGNTYYADSVKGRFTISLDNAKNTVYLQMNSLKPEDTEVYYCDAAIYSYYPASGYKRYDYWGQGTQVTVSS | high polyreactivity

Row | Sequence | polyreactivity (PSR sort gate)
23 | QVQLVESGGGLCQAGGSLRLSCAASGRTFYKNTMGWYRQAPGKERELVAAISIRGGSTYFADTVKGRFTISRDNAKNTFYLQMNSLKPEDTAVYYCNVVYQKAARIVDFDYWGQGTQVTLSS | high polyreactivity
24 | QVQLVESGGGLDHAGGRLRLSCAASGSIFIYYAMGWYRQAPGKERELVAAISNGGSTNYADSVKGRFTFSRDNAKNTVYLQMNSLKPEDTAVYYCNTDWGYFHGVRAYLGYGYWGQGTQVTVSS | low polyreactivity
25 | QVQLVESGGGLDHAGGSLRLSCAASGYTLTDYVMGWYRQAPGKQRELVAAIDWRDGTTYADSVKGRFTISRDNAKNTVYLQFNILKPEDTAVYFCGTDELLTSPRYPEYDYWGQGTQVTVSS | low polyreactivity
26 | QVQLVESGGGLDLAGGSLRLTCAASGSTFTYYAMGWYRQAPGKERELVAAISWRGASTYYADSVKGRFTISRDNAKNTVYLQMNSLNPEDTAVNYCNAVKQRSSIFDYWGQGTQVTVSS | low polyreactivity
27 | QVQLVESGGGLDPAGGSLRLSCAASGFTFYRNAMGWYRQAPGKERELVAGITRSGGSTYYADSVKGRFTISRDNAKNTVYLQMNSLKPEDTAVYYCNKAYGGVKYSGTYDYWGQGTQVTVSS | high polyreactivity
28 | QVQLVESGGGLDQAAGSLPLSCAASGLIFPVYAMGWYRQAPGKAREFVASIWRGGTTYYADSVKGRFTISRDNAKNTVYLQMNSLNPEDTAVYYCAARYYPSGLVFPFTKYDYWGQGTQVTVSS | high polyreactivity
29 | QVQLVESGGGLDQAGGSHRLSCAASGSTFPYPNTMGWYRQAPGKERELVAVISRTGGSTFYADSVKWRFTISRDNAKNTVYFQMNSLKPEDTAVYYCAARRDGWTFWKYDYWGHGTQVTVSS | high polyreactivity
30 | QVQLVESGGGLDQAGGSHRLSCAASGSTFYPYAMRWYRQAPGKERELVAGITVIDGSTYYADSVKGRFTMSRDNAKNPVYFQMNSLKPEDTAVYYCAVDGPNQVQEYGYWGQGTQVTVSS | low polyreactivity
31 | QVQLVESGGGLDQAGGSLLLSCAASGFTFGPYAMGWYRQAPGKERELVATIRSGYSTNYADSVKGRFTISRDNAKNTVYLQMNSLKPEDTAVYYFNREGWHYGPYGYWGQGTQVNVSS | low polyreactivity
32 | QVQLVESGGGLDQAGGSLPLSCAASGRILQGYAMGWYRQAPGKEREMVASIRTGGTTNYADSVKGRFTISRDNAKNTVYLQMNSLKPEDTAVYYCNRGYDSYYGRYYYWGQGTQVTVSS | high polyreactivity
33 | QVQLVESGGGLDQAGGSLRLICAASGRTFATNTMVWYRQAPGKERELVAAITFSGGSTYYADSVKGRFTISRDNEKNSVYLQMNSLKPEETAVYYCNVRSPYYSYRYRYGYWGQGTQVTVSS | high polyreactivity
34 | QVQLVESGGGLDQAGGSLRLICAASGRTFYYAMGWYRQAPGKERYADSVKGRFTISRDNAKNTVYLQMNSLKPEDTAVYYCAAKVPEPPSLDESDYWGQGTQVTVSS | low polyreactivity
35 | QVQLVESGGGLDQAGGSLRLICAASGRTFYYNVMGWYRQAPGKERELVAAISTGVSTNYADSVKGRFTISRDNAKNTVYLQMNSQKPEDTAVYYCNSRSYRWYRPVYRYDYWGQGTQVTVSS | high polyreactivity
36 | QVQLVESGGGLDQAGGSLRLRCAASGSTFLINAMGWYRQAPGKESELVAAISSSSGNTYYADSVKWRFTISRDNAKNTVYLQMNSLKPEDTAVYYCKAVFTRGVTQYDHYYWGQGTQVTVSS | high polyreactivity
37 | QVQLVESGGGLDQAGGSLRLSCAASGFIFAYYAMGWYRQAPGKERELVAAISSGGRTYYADSVKGRFTISRDNAKNTVYLQLNSLKPEDTAVYYCNKRFYPEHYYWGQGTQVTVSS | high polyreactivity
38 | QVQLVESGGGLDQAGGSLRLSCAASGFIFGPNAMGWYRQAPGKERELVAAISWIGSSTYYADSVKGRFTISRDNAKNTVYIKMNSLTPEDTPVYYCAADSSERRLLDFDYWGQGTQVTVSS | low polyreactivity
39 | QVQLVESGGGLDQAGGSLRLSCAASGFIFYRYVMGWYRQAPGKERELVATISSGGSTNYADSVKGRFTISRDNAKNTVYLQMNSLKPEDTAVYYCAKRRYFYNYYEYDYWGQGTQVTVSS | high polyreactivity
40 | QVQLVESGGGLDQAGGSLRLSCAASGFIFYYYAMGWYRQAPGKEREFVAGISRRGGSSYYADSVKGRFTISRDNAKNTVYLQMNSLKPEDTAVYYCIVDFHWQRFHHKSAAYDYWGQGTQVTVSS | high polyreactivity
41 | QVQLVESGGGLDQAGGSLRLSCAASGFIYWYYAMGWYRQAPVKERELVAAITRGGSTNYADSVKGRFTISRDNAKNTVYFQKNRLKPEDTSVYYCNASWRLVSSGFDGGYWGEGTQVTVSS | high polyreactivity
42 | QVQLVESGGGLDQAGGSLRLSCAASGFTFRWYAMGWYRQAPGKERELVAAISRGGNTNYADSVKGRFTISRDNAKNTVYLQMNSLKPEDSAVYYCARNTGPYLGYYHRYYWGHGTQVTVSS | high polyreactivity
43 | QVQLVESGGGLDQAGGSLRLSCAASGFTFVGNAMGWYRQAPGKERELVATITSGGNTKYADSVKGRFTISRDNAKNTVYLQMNSLKPEDTAVYYCAAAKYNYRRFNYWGQGTQVTVSS | low polyreactivity
